Experiment: yeast display, Sf9 membrane polyspecificity reagent, FACS + sequencing; frameworks hold sequencing errors
Procedure, shortened: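 Synthetic nanobody libraries on Saccharomyces cerevisiae BJ5465 were galactose-induced for 36–48 hours, stained 1 hour at 4 °C with 10% biotinylated, detergent-solubilized Sf9 membrane reagent and enriched on streptavidin microbeads. FACS then separated cells into low and high (top ~1%) gates by anti-HA (expression) and streptavidin (reagent binding) fluorescence. Genes were colony-PCR amplified, MiSeq 2 × 250 sequenced and CDR-length filtered. A clone's polyreactivity label is that of its gate of origin.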

Sequence | polyreactivity (PSR sort gate)
QVQLVESGGGLVQAGGSLRLSCASSGRTFPGNAMGWYRPAPGKERELVAAISWSGTRTYYADSVKGRFTISRDNAKNTVSLKMNSLKPEDTAVYSCNVVVKGAWDYYPYDYWGQGTQVTVSS | high polyreactivity
QVQLVESGGGLVQAGGSLRLSCASSGRTFRPYAKGWYRPAPGKDRELVAAITGGTRTYYADSVKGRFTISRDNAKNTVYLQMNSLKPEDTAGYYCAKGDFFSKHDYWGQGTQVTVSS | low polyreactivity
QVQLVESGGGLVQAGGSLRLSCASSGRTFRRYARGWYRQAPGKERELVATIRSGDNTNYADSVKGRFTISRDNAKNTVYLQMNSLKPEDTAVYYCNRSPKSGQVTYLYSVNAHYDYWGQGTQVTVSS | low polyreactivity
QVQLVESGGGLVQAGGSLRLSCASSGRTFRYYAKGWYRQAPGKERELVATISSGGSTNYADSVKGRFTISRDNAKNTVYFQMNSLKPEDTAVYYCAAAKYVTYLSIYYYWGQGTQVTVSS | high polyreactivity
QVQLVESGGGLVQAGGSLRLSCASSGRTFTYNAMGWYRQAPGKERELVAVIRYSGGTTYYADSVKGRFTISRDNAKNTVYFQMNRLIPEDTAVYYCAADSWSRSVNYYYWGQGTQVTVSS | low polyreactivity
QVQLVESGGGLVQAGGSLRLSCASSGRTFVFYAMGWYRHAPGKERELVAAITSGTSTNYADSVKGRFTISRDNAKNTVYLQMISLKPEDTAVYYCAAYWTDVTYSIGFGYWGQGTQVTVSS | low polyreactivity
QVQLVESGGGLVQAGGSLRLSCASSGSIFGGNAMGWYRQAPGKERELVAAITQSGDRTYYADSVKGRFTISRDNAKNTVYLQMNSLKPEDTAVYYCAARSPRKYGSIGYYWGQGTEVTVSS | high polyreactivity
QVQLVESGGGLVQAGGSLRLSCASSGSIFTGNVMGWYRQAPGKERELVAAISSRGGNTYYADSVKGRFTISRDNAKNTVYLQMNSLKPEDTAVYYCNKVKYTWYDWGQGTQVTVSS | high polyreactivity
QVQLVESGGGLVQAGGSLRLSCASSGSNFGRYAMGWYRQAPGKEREFVAAISRSSDNTSYADSVKGRFTISRDIAKNTVYLQMNRLNPEDRAVYYCNADRPFSLGQRKYVDFDEPYNYWGQGTQVTVSS | low polyreactivity
QVQLVESGGGLVQAGGSLRLSCASSGSTFFTNVMVRYRQAPGKERELVAAIDQRDGRTYYADSVKGRFTISRDNAKNTVYLQMNSLKPEDTAVYYSNAGTDGYQFYFGFADYDYWGQGTQVTVSA | low polyreactivity
QVQLVESGGGLVQAGGSLRLSCASSGSTFISYAMGWYRPAPGKERELVAAISRRGDSTYYADSVKGRFTISRDNAKNTVYLQMNSLKPEDSAVYYCNAVEWDDYYYSYADYGYSYDYWGQGTQVTVSS | low polyreactivity
QVQLVESGGGLVQAGGSLRLSCASSGSTFPGNAMGWYRQAPGKERELVAAIRDRGTSTYYADSVKGRFTISRDNAKNNVYLQMNSLKPEDTAVYYCAAASRVAKGRWRLYDDWGQGTQVTVSS | high polyreactivity
QVQLVESGGGLVQAGGSLRLSCASSGSTFPRYAMGWYRPAPGKETELVAAISSSGRTYYADSVKGRFTISRDNAKNTVFLQMNSLKPEDTAVYYCNAPVARGEASYYWGQGTQVTVSS | high polyreactivity
QVQLVESGGGLVQAGGSLRLSCASSGSTFSIYAMGWYRQAPGKERELVAGISGSGGSTYYADSVKGRFTISRDNAKNTVYLQMNSLKPEDTAVYYCAKRVLWGLDYWGQGTQVTVSS | low polyreactivity
QVQLVESGGGLVQAGGSLRLSCASSGSTFVPNTLGWYRQAPGKERELVAAISRSGGSTYYADSVKGRFTISRDNAKNTVYLQMNSLKPEDTAVYYCAARRFGYQGFAYGYWGQGTQVTVSS | high polyreactivity
QVQLVESGGGLVQAGGSLRLSCASSGSTFVYNVMGRYRQAPGKERDLVAAISRSGGSTYYADSVKGRFTISRDNAKNSVYLQMNSLKPEDTAVYYCAKRVYGWWYDHWGQGTQVTVSS | high polyreactivity
QVQLVESGGGLVQAGGSLRLSCASSGSTFYFNAMGWYRQAPGKERELVAAITSSGGTTYYADSVKGRFTISRDNAKNTVYLQMNSLKPEDTAVFYCADWFSAYYSLYRHRGYWGHGTQVTVSS | low polyreactivity
QVQLVESGGGLVQAGGSLRLSCASSGSTFYWNGMGWYRQAPGKERDLVADITWSGTSTNYADSVKGRFTISRDNAKNTVYLQMNSLKPEDTAVYYCAVSDFGLRDSLTIYDEYDYWGQGTQVTVSS | high polyreactivity
QVQLVESGGGLVQAGGSLRLSCASSGSTLGVNAMGWYRQAPGKVRELVADISVRTDSTYYADSVKGRFTISRDNAKNTVYLQMNSLKPEDTAVYYCAADVPYYYPGFYSYYDDSDYWGQGTQVTVSS | low polyreactivity
QVQLVESGGGLVQAGGSLRLSCASSGYTFRYYAMGWYRQAPGKERELVAAITRRGATTYYADSVKGRFTISRDNAKNTVYLQMNRLQPEDTADYYCNAVYQYGSFVTAAGNYWGQGTQVTVSS | high polyreactivity
QVQLVESGGGLVQAGGSLRLSCASSRINFYLYAMGWYRQAPGIERELVAAISRRGVSTYYADSVKGRFTISRDNAKNSVYLEMKSLKAEDTGVYYCAAAGFGYTGEEFWGQGTQVTVSS | high polyreactivity
QVQLVESGGGLVQAGGSLRLSCASYGRIIGIYAMGWSRPAHGKERELVATITDSDDSTYYADSVKGRFTISRDNAKNTVYLQMNSLKPEDTAVYFCATAFSYGGGAYDYWGHGTQVTVSS | low polyreactivity

Sequence | polyreactivity (PSR sort gate)
QVQLVESGGGLVQAGGSLRLSCATSGITFIGKYAMGWYRQAPGKERELVAAISWSGGRTYYADSVKGRFTISRDNAKNSDYLQMNSLKPEDTAVYYCAVYPRDAERYGYWGQGTQVTVSS | high polyreactivity
QVQLVESGGGLVQAGGSLRLSCATSGRTLGGYAMGWYRHAPGKERELVASITSTSSTYADSVKGRFTISRDNAKNTVYLQMNSLKPEDTAVYYCAADPRRYRGFGYVYGGFYYWGQGTQVTVSS | low polyreactivity
QVQLVESGGGLVQAGGSLRLSCATSGSIFVFNAMGWYRQAPGKERELVAAIDTSDDITYYADSVKGRFTISRDNAKNTVYLQMNSLKPEDTAVYYCNAYYTYRFNYWGQGTQVTVSS | high polyreactivity
QVQLVESGGGLVQAGGSLRLSCDASGFISFGNAMGWNRQAPRKERELVAGISRSGGSTYYADSVKGRFTISRDNAKNTVYLQMISLKPEDTAVYYCATRVAIYPYRFDYWGQGTQVTVSS | high polyreactivity
QVQLVESGGGLVQAGGSLRLSCDASGFTFARYNMGWYRQAPGKERELVAAISSRGSSTYYADSVKGRFTISRDNAKNTVYLQMNSLKAEDTAVYYCAAPPRYGYDYWGQGTQVTVSS | high polyreactivity
QVQLVESGGGLVQAGGSLRLSCDASGGPFYLNAMGWYRPAPGTERELVAGITWGGGRTYYADSVKGLFTISRDNAKNTVYLQMNSLKPEDTAVYYCAAGAWRGPYSGYYYWGQGTQVTVSS | low polyreactivity
QVQLVESGGGLVQAGGSLRLSCDASGGTITNYAMGWYRQAPGKERELVAAITDSGATTYYADSVKGRFTISLVTAKNPVSLQMNSLKPEDTAVYDCNAELDLYTYFDYWGQGTQVTVSS | low polyreactivity
QVQLVESGGGLVQAGGSLRLSCDASGIIFASYAMGWYRQAPGKERELVAAISGGGSTYYADSEKGRFTISRDNAKNTVYLQMNSLKPVDTAVYYCNAEAYYRWLTNIWYSDFDYWGLGTQVTVSS | low polyreactivity
QVQLVESGGGLVQAGGSLRLSCDASGIIFRGNSMGWYRQAPGKERELVAAISRSGRTNYADSVKGSFTISRDNAKNTVYLQMYSLKPEDTAVYYCAVDKRYGRVFGRDYDYWGQGTQVTESS | high polyreactivity
QVQLVESGGGLVQAGGSLRLSCDASGIIIRWYAMGWYRQAPGKERELVAAITSSGGRTYYADSVKGRFTISRDNAKNTVYLQMNSLKPEDTAVYYCAAQRYSHLYRGRFAYRYYYWGQGTQVTVSS | high polyreactivity
QVQLVESGGGLVQAGGSLRLSCDASGITLRTYSIGWYRQAPGKERELVAAISKSGDRTYYADSVKGRFTISRDNAKNTVYLQMNSLKPEDNAVYYCAKATNAQYLYDYWGQGTHVTVSS | low polyreactivity
QVQLVESGGGLVQAGGSLRLSCDASGLIFRPYARGWFRQAPGKERELVAAITSGGSTDYADSVKGRFTISRDNAKNTVYLLMNSLKPADTAVYYCNADIYPHDGYPWQGDYDYWGQGTQVTVSS | low polyreactivity
QVQLVESGGGLVQAGGSLRLSCDASGLTFPSYAMGWYRQAPGKERELVAAISSGDSTNYADSVKGRFTISRDNAKNTVYLQMNSLKPEDTAVYYCAVGLPHGGRRLYGSWYRFDYWGQGTQVTVSS | low polyreactivity
QVQLVESGGGLVQAGGSLRLSCDASGLTFSFYVMGWYRQAPVKERELVAAISRSGTSTYYSDSVKGRFTISRDNAKNTVYLQMNSLKPEDTAVYYCADRGRWLYYLYELDYWGQGTQVTESS | high polyreactivity
QVQLVESGGGLVQAGGSLRLSCDASGLTFSGYVMGWYRQAPGKESELVAAISLSGGSTYYADSVKGRFTISRDNAKNTVYLQMNSLKPEDTAVYYCAARTPFYNSYRRDYWGQGTQVTVSS | high polyreactivity
QVQLVESGGGLVQAGGSLRLSCDASGLTIYGYAIGSYRQAPGKERELVAAITSGDSTYYADSVKGRFTISRDTAKNTVYFQMNSLKPDDTAVYYCAAVGGYPRYGYWGQGTQVTVSS | high polyreactivity
QVQLVESGGGLVQAGGSLRLSCDASGRIFSLYAMGWYRQAPGKERELVAAISRRSGNTNYADSVKGRFTISRDNAKNNVFLQLNSLKPEDTAVYFCAARPGAISSTSPYDYWGEGTQVTVSS | high polyreactivity
QVQLVESGGGLVQAGGSLRLSCDASGRIFVVYAMGWSRQAPGKERELVAAITGGGRTNYADSVKGRFTISRDNAKNTVYLQMNSLKPEDTAVYYCAAGTRSDARRYYYWGQGTQVTVSS | low polyreactivity
QVQLVESGGGLVQAGGSLRLSCDASGRTFGYYAMGWYRHAPGQERELVAGIRSSGGSTYYADSVKGRFTISRDNAKNTVYLQMNSLKPEDTAVYYCAARLRSYHYRYGYDYWGQGTQVTVSS | high polyreactivity
QVQLVESGGGLVQAGGSLRLSCDASGRTFIVYAMGWYRQEPGKERELVARISSGSRTSYADSVKGRFTISRDNAKNTVYLQMNSLKPEDTAVYYCNAREYLKPGVPYYSQQLDYWGQGTQVTVSS | low polyreactivity
QVQLVESGGGLVQAGGSLRLSCDASGSIFDGYGMGWYRQAPGKERELVASITCNDGSTYYADSVKGRFTISRDNANNTFYLQMNSLKPEDTAVYYCASDQWGYEYDYWGQGTQVTVSS | low polyreactivity

Source: the nanobody polyreactivity screen of Harvey et al. (2022)
